Data on five molecules can be found in patent publication US20200277373A1 (DENALI THERAPEUTICS, published 2020).

Test [1] has as its target T1, Mouse TREM2, on cells (mouse, UniProt Q99NH8 19-227).
T1 construct: whole, on cells; also called mouse TREM2 HEK
T1 sequence (looked up): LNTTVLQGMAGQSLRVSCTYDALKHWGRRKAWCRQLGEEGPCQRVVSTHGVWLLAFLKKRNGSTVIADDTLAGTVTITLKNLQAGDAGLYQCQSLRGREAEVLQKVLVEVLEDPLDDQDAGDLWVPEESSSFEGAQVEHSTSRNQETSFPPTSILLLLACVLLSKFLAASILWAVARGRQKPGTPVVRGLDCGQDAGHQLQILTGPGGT
Briefly: Table 5, cell binding: Mouse TREM2 HEK.

The target of test [2] is T2, His-tagged TREM2 ECD (ecto domain residues 19-172 of human TREM2, C-terminal 6X-His tag) (human, UniProt Q9NZC2 19-172).
T2 construct: Made in Expi293F cells; the mouse Ig kappa secretion signal is not part of the mature protein; Biotinylated for the Octet binning; also called TREM2-His; TREM2-His protein
T2 sequence: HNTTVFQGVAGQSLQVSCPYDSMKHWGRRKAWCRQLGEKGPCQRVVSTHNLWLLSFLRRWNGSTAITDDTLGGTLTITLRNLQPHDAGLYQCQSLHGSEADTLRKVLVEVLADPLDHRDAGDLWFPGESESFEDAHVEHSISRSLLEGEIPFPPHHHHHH
Briefly: Table 1 Kd; Biacore, TREM2-His analyte (presumed). How it is done: Anti-murine Fc antibody (obtained from GE Healthcare) was immobilized on the surface of a CM5 chip (obtained from GE Healthcare) through amine-coupling to reach about 6,000 to 8,000 response units (RU). The surface was activated by injection of a mixture of 1-ethyl-3-(3-dimethylaminopropyl)-carbodiimide (EDC) and N-hydroxysuccinimide (NHS), both obtained from GE Healthcare, for 7 minutes. Anti-murine Fc antibody was diluted in sodium acetate (pH 5.0) at 25 μg/mL and injected for 10 minutes at a flow rate of 5 μL/minute, followed by injection of ethanolamine (obtained from GE Healthcare) for 7 minutes.
Purified anti-TREM2 hybridoma (20 μg/mL) was captured to reach 1000-1500 RU. A range of serially-diluted TREM2-His protein (e.g., 3.4 nM to 300 nM) was injected at a flow rate of 30 μL/minute, using either single-cycle kinetics methods. Sensorgrams were fitted using a 1:1 Langmuir model to estimate kₒₙ and koff.
(SPR reads the build-up and loss of mass on a sensor chip optically.)

For test [3], the target named is T3, Human TREM2 protein, on cells (human, UniProt Q9NZC2 19-230).
T3 construct: Wild type human TREM2 expressed with DAP12 on HEK293 cells (clone H6), or endogenous on primary human monocyte-derived macrophages; also called hTREM2-HEK; HEK293-H6
T3 sequence: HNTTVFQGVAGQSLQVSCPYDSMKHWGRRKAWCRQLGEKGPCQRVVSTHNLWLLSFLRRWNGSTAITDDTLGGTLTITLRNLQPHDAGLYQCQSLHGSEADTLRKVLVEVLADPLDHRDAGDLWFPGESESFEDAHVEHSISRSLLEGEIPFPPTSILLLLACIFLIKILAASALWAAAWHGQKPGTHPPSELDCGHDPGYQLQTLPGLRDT
Briefly: flow cytometry, HEK293 cells overexpressing human TREM2. Here is the method:
(§1) After labeling, cells were washed twice with 1×PBS. […] Mixed cell lines were seeded at 300,000 cells per well in a 96-well round-bottom and incubated 20 minutes at room temperature. After incubation, cells were centrifuged and test anti-TREM2 antibodies were added, then incubated for 45 minutes on ice. After incubation, cells were centrifuged and washed with FACS buffer three times.
(§2) The data in Table 2 is presented as fold over binding (FOB).

For test [4], the target named is T3, Human TREM2 protein, on cells. Nature of the test: cell-based or functional assay.
The target is the same in test [5]. Briefly: cell-based or functional assay. This is another data set of the same source.
Test [6] deals with T1, Mouse TREM2, on cells. Nature of the test: flow cytometry, 293F cells overexpressing mouse TREM2. How it is done:
as §1, §2
In general terms: In flow cytometry, cells or beads pass a laser one at a time.

Test [7] addresses T3, Human TREM2 protein, on cells. Nature of the test: cell binding, human TREM2-expressing HEK cells, flow cytometry titration.
Test [8] concerns the target T1, Mouse TREM2, on cells. Briefly: flow cytometry titration on mTREM2-293F cells.
From the text: (§3) FIGS. 1A-1D. […] (A) Anti-TREM2 antibodies were screened for binding to HEK cells expressing human TREM2 (unlabeled) and mouse TREM2 HEK expressing cells (labeled with NucBlue). Antibody binding was detected with a secondary anti-mouse multiple adsorption antibody conjugated to APC. […] (B) Parental HEK-GFP cells were used as a negative control to rule out non-specific binding. (C) Anti-TREM2 antibody surface binding dose response in hTREM2-HEK cells. Anti-TREM2 antibodies were titrated for binding to HEK cells expressing human TREM2. Antibody binding was detected with a secondary anti-mouse multiple adsorption antibody conjugated to APC. […] Mouse TREM2 HEK cells were titrated for binding as in (C).
as §1

Test [9] has as its target T3, Human TREM2 protein, on cells. Briefly: flow cytometry titration on hTREM2-HEK cells.
From the text: as §3, §1

Test [10] deals with T4, Human transferrin receptor apical domain (human, UniProt P02786 198-378, limits assumed).
T4 construct: also called hTfR apical domain; TfR apical domain
T4 sequence (P02786 198-378 limits assumed): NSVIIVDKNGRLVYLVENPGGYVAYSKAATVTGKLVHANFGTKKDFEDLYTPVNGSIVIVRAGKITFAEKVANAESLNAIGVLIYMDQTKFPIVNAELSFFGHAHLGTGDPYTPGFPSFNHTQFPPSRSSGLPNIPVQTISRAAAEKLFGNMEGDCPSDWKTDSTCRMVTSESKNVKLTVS
Briefly: Biacore T200, antibody captured, antigen injected, 1:1 model. How it is done: (§4) To measure TfR binding, anti-human-Fab was immobilized on a CM5 chip, and the TREM2/TfR-binding protein was captured. Full-length human TfR or human TfR apical domain at serial dilution (e.g., concentrations of 1-1000 nM) was flowed over the chip (180 second association time) and then allowed to dissociate. Fitting was performed using a 1:1 binding model. To measure TREM2 binding, anti-human-Fc antibody was immobilized on a CM5 chip, and the TREM2/TfR-binding protein was captured. A range of concentrations of recombinant TREM2-His protein were flowed over the chip, and allowed to associate and dissociate. The resulting sensograms were fitted using a 1:1 Langmuir model to estimate kₒₙ and koff (FIG. 10).
(§5) Biacore Series S CM5 sensor chips were immobilized with a mixture of two monoclonal mouse anti-Fab antibodies (Human Fab capture kit from GE Healthcare). Serial 3-fold dilutions of each antigen were injected at a flow rate of 30 μL/min. The binding of the antigens to captured antibody was monitored for 30 to 180 seconds and then their dissociation was monitored for 30-300 seconds in HBS-EP+running buffer (GE, # BR100669). Binding response was corrected by subtracting the RU from a blank flow cell. A 1:1 Languir model of simultaneous fitting of kₒₙ and koff was used for kinetics analysis.

Test [11] addresses T2, His-tagged TREM2 ECD (ecto domain …). The description is as above. Here is the method: as §4, §5

B1: 49H11.B1 (antibody, IgG3, V domains shown)
VH: DVQLQESGPGLVKPSQSLSLTCTVTGYSITSDYAWNWIRQFPGNRLEWMGYISFSGSTSYNPSLKSRISITRDTSKNQFFLQLNSVTTEDTATYYCARWNGNYGFAYWGQGTLVTVSA
VL: DVVMTQTPLSLPVSLGDQASISCRSSQSLVHINGNTYLHWYLQKPGQSPKLLIYKVSNRFSGVPDRFSGSGSGTDFTLKISRVEAEDLGVYFCSQSTHVTFTFGSGTKLEIK
notes: Mouse hybridoma antibody, IgG3, k; also called RS8.49H11.B1
A word on the Kd: it is the constant that tells how readily two partners part at equilibrium. Read a high Kd as a looser complex. With B1, the binding result with Mouse TREM2, on cells [1] is “no binding”. The same molecule displayed a Kd in test [2] of 63.4 nM. Besides, the “FOB (fold over binding)” value turned out to be 7 fold in test [3] and 1.2 fold in the test with Mouse TREM2, on cells [6]. Besides, the “pSyk (nM), EC50” value in [4] stood at 26.5 nM. For the same molecule, in test [5], the “pSyk FOB (30 nM Ab)” value is 11.6 fold over background.

B2: 24B4.A1 (antibody, V domains shown)
VH: QVHLQQSGSELRSPGSSVKLSCKDFDSEVFPISYMSWIRQKPGHGFEWIGDILPSIGGRIYGVKFEDRATLDADTVSNTAYLELNSLTSEDSAIYYCARKDYGSLAYWGQGTLVTVSA
VL: DVVMTQTPLSLPVSLGDQASISCRSSQSLVHINGNTYLQWFLQKPGQSPKLLIYKVSNRFSGVPDRFSGSGSGTAFTLKISRVEAEDLGVYFCSQSTHVPYTFGGGTKLEIK
notes: Mouse hybridoma antibody, Ig2a, k; same entries as 26E2.A3; also called RS8.24B4.A1
A word on the EC50: it is the concentration giving half of the maximal effect. Read a low EC50 as greater potency. As for B2, in the test with Mouse TREM2, on cells [1], the binding result is on record as “no binding”. In addition, in test [2], the equilibrium dissociation constant (Kd) turned out to be 12.4 nM. Further, the “FOB (fold over binding)” value in test [3] came to 8.6 fold; with Mouse TREM2, on cells [6], 1.5 fold. In addition, the “pSyk (nM), EC50” value in test [4] turned out to be 49.8 nM. The same molecule came in with an EC50 in test [7] of 7.5 nM. Further, the “pSyk FOB (30 nM Ab)” value in [5] turned out to be 17.3 fold over background.

B3: RS9.F10 (antibody, V domains shown)
VH: QVQLQQPGAELVKPGASVKLSCKASGYTFTSYWMHWVKQSPGRGLEWIGRSDPTTGGTNYNEKFKTKATLTVDKPSSTAYMQLSSLTSDDSAVYYCVRTSGTGDYWGQGTSLTVSS
VL: DVVMTQTPLSLPVSLGDQASISCRSSQSLVHNNGNTFLHWYLQKPGQSPKLLIYKVSNRFSGVPDRFSGSGSGTDFTLKISRVEAEDLGVYFCSQTTHVPPTFGGGTKLEIK
notes: same entries as RS9.F6; also called RS.F10
Regarding B3, the Kd in test [2] is 0.852 nM. The “FOB (fold over binding)” value came out at 12.9 fold in test [3] and 75.8 fold with Mouse TREM2, on cells [6]. Moreover, the “pSyk (nM), EC50” value in [4] stood at 20.5 nM. Besides, the EC50 was 1.54 nM in test [7]; < 8 nM with Mouse TREM2, on cells [8]; < 2 nM in test [9]. The “pSyk FOB (30 nM Ab)” value in test [5] was found to be 9.89 fold over background.

B4: RS9.F6/3C.35.21.17 (bispecific antibody, human IgG1, L234A L235A)
heavy 1: QVQLQQPGAELVKPGASVKLSCKASGYTFTSYWMHWVKQSPGRGLEWIGRSDPTTGGTNYNEKFKTKATLTVDKPSSTAYMQLSSLTSDDSAVYYCVRTSGTGDYWGQGTSLTVSSASTKGPSVFPLAPSSKSTSGGTAALGCLVKDYFPEPVTVSWNSGALTSGVHTFPAVLQSSGLYSLSSVVTVPSSSLGTQTYICNVNHKPSNTKVDKKVEPKSCDKTHTCPPCPAPEAAGGPSVFLFPPKPKDTLMISRTPEVTCVVVDVSHEDPEVKFNWYVDGVEVHNAKTKPREEQYNSTYRVVSVLTVLHQDWLNGKEYKCKVSNKALGAPIEKTISKAKGQPREPQVYTLPPSRDELTKNQVSLWCLVKGFYPSDIAVLWESYGTEWASYKTTPPVLDSDGSFFLYSKLTVTKEEWQQGFVFSCSVMHEALHNHYTQKSLSLSPGK
heavy 2: QVQLQQPGAELVKPGASVKLSCKASGYTFTSYWMHWVKQSPGRGLEWIGRSDPTTGGTNYNEKFKTKATLTVDKPSSTAYMQLSSLTSDDSAVYYCVRTSGTGDYWGQGTSLTVSSASTKGPSVFPLAPSSKSTSGGTAALGCLVKDYFPEPVTVSWNSGALTSGVHTFPAVLQSSGLYSLSSVVTVPSSSLGTQTYICNVNHKPSNTKVDKKVEPKSCDKTHTCPPCPAPEAAGGPSVFLFPPKPKDTLMISRTPEVTCVVVDVSHEDPEVKFNWYVDGVEVHNAKTKPREEQYNSTYRVVSVLTVLHQDWLNGKEYKCKVSNKALGAPIEKTISKAKGQPREPQVYTLPPSRDELTKNQVSLSCAVKGFYPSDIAVEWESNGQPENNYKTTPPVLDSDGSFFLVSKLTVDKSRWQQGNVFSCSVMHEALHNHYTQKSLSLSPGK
light: DVVMTQTPLSLPVSLGDQASISCRSSQSLVHNNGNTFLHWYLQKPGQSPKLLIYKVSNRFSGVPDRFSGSGSGTDFTLKISRVEAEDLGVYFCSQTTHVPPTFGGGTKLEIK
notes: second: RS9.F6 Fd on Fc with LALAPG and hole mutations; Vectors co-transfected 1:1:2; also called RS9.F6/3C35.21.17_LALAPG; ATV-Anti-TREM2
For orientation: koff means the rate constant with which the complex falls apart. Higher therefore signals a short-lived complex. The term kon denotes a measure of how fast the partners come together. A higher kon goes with fast association. In test [10], B4 registered a Kd of 110 nM, a koff of 0.19 s⁻¹ and a kon of 1.7e+06 M⁻¹ s⁻¹. In test [11], this molecule had a Kd of 2.6 nM, a koff of 0.00038 s⁻¹ and a kon of 150000 M⁻¹ s⁻¹.

B5: 54C2.A1 (antibody, V domains shown)
VH: QVHLQQSGSELRSPGSSVKLSCKDFDSEVFPIAYMSWVRQKPGHGFEWIGDILPSIGRRIYGVKFEDKATLDADTVSNTAYLELNSLTSEDSAIYYCTRKDYGSLAYWGQGTLVTVSA
VL: DVVMTQTPLSLPVSLGDQASISCRSSQSLVHINGNTYLQWYLQKPGQSPKLLIYKVSNRFSGVPDRFSGSGSGTDFTLRISRVEAEDLGVYFCSQSTHLPYTFGGGTKLEIK
notes: Mouse hybridoma antibody, Ig2b, k; also called RS8.54C2.A1
As to B5, the binding result with Mouse TREM2, on cells [1] is “no binding”. This molecule gave an equilibrium dissociation constant (Kd) in test [2] of 2.19 nM. Further, the “FOB (fold over binding)” value in test [3] was 12.8 fold; with Mouse TREM2, on cells [6], 1.7 fold. Moreover, the “pSyk (nM), EC50” value in test [4] was 456 nM. For the same molecule, the EC50 in test [7] is 4.09 nM. Also, in test [5], the “pSyk FOB (30 nM Ab)” value is 6.56 fold over background.
